Laboratory results reported in patent US20220402983A1 (Janssen / Centocor, published 2022).
*1 amine or outer side, *2 acyl side, *3 side chain or, on linkers, in order; H or OH if unused. Bridges are numbered along the chain shown (N, C = ends). Where no end group is shown, it is not given here. [ ]: non-standard residue; d: D form. dPhe(3,4-diOMe) = D-Phe with 3,4-dimethoxy, COc1ccc(C[C@@H](N[*:1])C(=O)[*:2])cc1OC; αMe2Nal = alpha-methyl-2-Nal, C[C@@](Cc1ccc2ccccc2c1)(N[*:1])C(=O)[*:2]; Phe(3,4-(OMe)2) = COc1ccc(C[C@H](N)C(=O)O)cc1OC; Trp(5-F) = N[C@@H](Cc1c[nH]c2ccc(F)cc12)C(=O)O; Trp(7-Me) = Cc1cccc2c(C[C@H](N)C(=O)O)c[nH]c12; 2Nal = N[C@@H](Cc1ccc2ccccc2c1)C(=O)O; AEF = NCCOc1ccc(C[C@H](N)C(=O)O)cc1; αMeF = C[C@](N)(Cc1ccccc1)C(=O)O; αMeE = C[C@](N)(CCC(=O)O)C(=O)O; β3hF = N[C@H](CC(=O)O)Cc1ccccc1; Pen = CC(C)(S)[C@H](N)C(=O)O; αMeK = C[C@](N)(CCCCN)C(=O)O; αMeC = C[C@](N)(CS)C(=O)O; dDap = NC[C@@H](N)C(=O)O; Thp = NC1(C(=O)O)CCOCC1; Abu = CC[C@H](N)C(=O)O; Aib = CC(C)(N)C(=O)O; Ahx = NCCCCCC(=O)O

T1: human IL-23R (interleukin-23 receptor) (human, UniProt Q5VWK5 24-629)
T1 sequence (looked up): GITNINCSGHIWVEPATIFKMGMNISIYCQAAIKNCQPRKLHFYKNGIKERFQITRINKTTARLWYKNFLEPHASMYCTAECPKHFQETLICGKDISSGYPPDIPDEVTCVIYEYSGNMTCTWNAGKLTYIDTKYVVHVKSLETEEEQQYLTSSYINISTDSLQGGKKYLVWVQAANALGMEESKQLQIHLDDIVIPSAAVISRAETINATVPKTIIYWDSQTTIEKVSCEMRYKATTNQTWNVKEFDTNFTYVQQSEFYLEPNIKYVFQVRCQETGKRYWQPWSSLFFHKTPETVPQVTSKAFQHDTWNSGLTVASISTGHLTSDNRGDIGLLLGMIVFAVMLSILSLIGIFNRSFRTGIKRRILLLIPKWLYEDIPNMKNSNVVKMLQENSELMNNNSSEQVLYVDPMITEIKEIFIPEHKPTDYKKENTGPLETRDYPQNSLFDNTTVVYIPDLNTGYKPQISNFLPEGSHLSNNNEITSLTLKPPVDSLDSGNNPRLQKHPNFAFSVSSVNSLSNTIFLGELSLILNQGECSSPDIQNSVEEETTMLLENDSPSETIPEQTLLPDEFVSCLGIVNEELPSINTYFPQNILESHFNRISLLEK


What follows are binders tested against T1, human IL-23R (interleukin-23 receptor) (assay: cell-based or functional assay).

| Binder | PBMC pSTAT3 IC50 (nM) | pStat3 HTRF (nM), IC50, DB cells IL23R pSTAT3 cell assay [nM] |
| --- | --- | --- |
| [dR][Abu]QTWQC[AEF][2Nal][Thp]EN[αMeF]-NH2 (thioether 2-7; not fully specified (N-terminus); printed as pr-[(D)Arg]-[Abu]-Q-T-W-Q-[Cys]-Phe[4-(2-aminoethoxy)]-[2-Nal]-[THP]-E-N-[a-MePhe]-NH2) [Compound No. 85] | 7.6 |  |
| XNTXQXFXKKNX (Ac-[Pen]-N-T-[W(7-Me)]-Q-[Pen]-Phe[4-(2-aminoethoxy)]-[2-Nal]-[a-MeLys]-[Lys(Ac)]-N-[THP]-NH2; cyclized: Pen-Pen disulfide bond) [Compound No. 87] | 3.6 |  |
| Ac-[dR][Abu]QTWQC[AEF][2Nal][Thp][αMeE]N[Trp(5-F)]-NH2 (thioether 2-7) [Compound No. 81] | 30 |  |
| Ac-[dR][Abu]QTWQC[AEF][2Nal][Thp]EN[αMe2Nal]-NH2 (thioether 2-7) [Compound No. 80] | 46 |  |
| Ac-[dR][Abu]QTWQC[AEF][2Nal][Thp][αMeE]N[dPhe(3,4-diOMe)]-NH2 (thioether 2-7) [Compound No. 79] | 25 |  |
| Ac-[Pen]QTWK(Ac)[Pen][AEF][2Nal][αMeK]K(Ac)N[αMeF]-NH2 (disulfide 1-6; SMILES CC(=O)NCCCC[C@@H]1NC(=O)[C@H](Cc2c[nH]c3ccccc23)NC(=O)[C@H]([C@@H](C)O)NC(=O)[C@H](CCC(N)=O)NC(=O)[C@@H](NC(C)=O)C(C)(C)SSC(C)(C)[C@@H](C(=O)N[C@@H](Cc2ccc(OCCN)cc2)C(=O)N[C@@H](Cc2ccc3ccccc3c2)C(=O)N[C@@](C)(CCCCN)C(=O)N[C@@H](CCCCNC(C)=O)C(=O)N[C@@H](CC(N)=O)C(=O)N[C@@](C)(Cc2ccccc2)C(N)=O)NC1=O) [Compound No. 82] | 54 |  |
| Ac-[Pen]NT[Trp(7-Me)]K(Ac)[Pen][AEF][2Nal][αMeK]K(Ac)N[Aib][Ahx]-NH2 (disulfide 1-6; SMILES CC(=O)NCCCC[C@@H]1NC(=O)[C@H](Cc2c[nH]c3c(C)cccc23)NC(=O)[C@H]([C@@H](C)O)NC(=O)[C@H](CC(N)=O)NC(=O)[C@@H](NC(C)=O)C(C)(C)SSC(C)(C)[C@@H](C(=O)N[C@@H](Cc2ccc(OCCN)cc2)C(=O)N[C@@H](Cc2ccc3ccccc3c2)C(=O)N[C@@](C)(CCCCN)C(=O)N[C@@H](CCCCNC(C)=O)C(=O)N[C@@H](CC(N)=O)C(=O)NC(C)(C)C(=O)NCCCCCC(N)=O)NC1=O) [Compound No. 70] |  | 1.22 |

Continued, values first:

| PBMC pSTAT3 IC50 (nM) | pStat3 HTRF (nM), IC50, DB cells IL23R pSTAT3 cell assay [nM] | Binder |
| --- | --- | --- |
|  | 52.6 | Ac-[Pen]N[dDap][Trp(7-Me)]K(Ac)[Pen][AEF][2Nal][αMeK]K(Ac)N[dL]-NH2 (disulfide 1-6; SMILES CC(=O)NCCCC[C@@H]1NC(=O)[C@H](Cc2c[nH]c3c(C)cccc23)NC(=O)[C@@H](CN)NC(=O)[C@H](CC(N)=O)NC(=O)[C@@H](NC(C)=O)C(C)(C)SSC(C)(C)[C@@H](C(=O)N[C@@H](Cc2ccc(OCCN)cc2)C(=O)N[C@@H](Cc2ccc3ccccc3c2)C(=O)N[C@@](C)(CCCCN)C(=O)N[C@@H](CCCCNC(C)=O)C(=O)N[C@@H](CC(N)=O)C(=O)N[C@H](CC(C)C)C(N)=O)NC1=O) [Compound No. 72] |
|  | 73.1 | Ac-[Pen]N[dD][Trp(7-Me)]K(Ac)[Pen][AEF][2Nal][αMeK]K(Ac)N[dL]-NH2 (disulfide 1-6; SMILES CC(=O)NCCCC[C@@H]1NC(=O)[C@H](Cc2c[nH]c3c(C)cccc23)NC(=O)[C@@H](CC(=O)O)NC(=O)[C@H](CC(N)=O)NC(=O)[C@@H](NC(C)=O)C(C)(C)SSC(C)(C)[C@@H](C(=O)N[C@@H](Cc2ccc(OCCN)cc2)C(=O)N[C@@H](Cc2ccc3ccccc3c2)C(=O)N[C@@](C)(CCCCN)C(=O)N[C@@H](CCCCNC(C)=O)C(=O)N[C@@H](CC(N)=O)C(=O)N[C@H](CC(C)C)C(N)=O)NC1=O) [Compound No. 74] |
|  | 51.1 | Ac-[Pen]N[dK][Trp(7-Me)]K(Ac)[Pen][AEF][2Nal][αMeK]K(Ac)N[dL]-NH2 (disulfide 1-6; SMILES CC(=O)NCCCC[C@@H]1NC(=O)[C@H](Cc2c[nH]c3c(C)cccc23)NC(=O)[C@@H](CCCCN)NC(=O)[C@H](CC(N)=O)NC(=O)[C@@H](NC(C)=O)C(C)(C)SSC(C)(C)[C@@H](C(=O)N[C@@H](Cc2ccc(OCCN)cc2)C(=O)N[C@@H](Cc2ccc3ccccc3c2)C(=O)N[C@@](C)(CCCCN)C(=O)N[C@@H](CCCCNC(C)=O)C(=O)N[C@@H](CC(N)=O)C(=O)N[C@H](CC(C)C)C(N)=O)NC1=O) [Compound No. 73] |
| 31 |  | Ac-[dR][Abu]QTWQC[AEF][2Nal][Thp][αMeE]N[Phe(3,4-(OMe)2)]-NH2 (thioether 2-7) [Compound No. 78] |
| 54 |  | Ac-[Pen]QTWK(Ac)[Pen][AEF][2Nal][αMeK]K(Ac)N[Thp]-NH2 (disulfide 1-6; SMILES CC(=O)NCCCC[C@@H]1NC(=O)[C@H](Cc2c[nH]c3ccccc23)NC(=O)[C@H]([C@@H](C)O)NC(=O)[C@H](CCC(N)=O)NC(=O)[C@@H](NC(C)=O)C(C)(C)SSC(C)(C)[C@@H](C(=O)N[C@@H](Cc2ccc(OCCN)cc2)C(=O)N[C@@H](Cc2ccc3ccccc3c2)C(=O)N[C@@](C)(CCCCN)C(=O)N[C@@H](CCCCNC(C)=O)C(=O)N[C@@H](CC(N)=O)C(=O)NC2(C(N)=O)CCOCC2)NC1=O) [Compound No. 84] |
| 33 |  | [dR][Abu]QTWQ[αMeC][AEF][2Nal][Thp]EN[αMeF]-NH2 (thioether 2-7; not fully specified (N-terminus); printed as pr-[(D)Arg]-[Abu]-Q-T-W-Q-[aMeCys]-Phe[4-(2-aminoethoxy)]-[2-Nal]-[THP]-E-N-[a-MePhe]-NH2) [Compound No. 83] |
|  | 3.39 | Ac-[Pen]NT[Trp(7-Me)]K(Ac)[Pen][AEF][2Nal][αMeK]K(Ac)N[Aib][β3hF]-NH2 (disulfide 1-6; SMILES CC(=O)NCCCC[C@@H]1NC(=O)[C@H](Cc2c[nH]c3c(C)cccc23)NC(=O)[C@H]([C@@H](C)O)NC(=O)[C@H](CC(N)=O)NC(=O)[C@@H](NC(C)=O)C(C)(C)SSC(C)(C)[C@@H](C(=O)N[C@@H](Cc2ccc(OCCN)cc2)C(=O)N[C@@H](Cc2ccc3ccccc3c2)C(=O)N[C@@](C)(CCCCN)C(=O)N[C@@H](CCCCNC(C)=O)C(=O)N[C@@H](CC(N)=O)C(=O)NC(C)(C)C(=O)N[C@H](CC(N)=O)Cc2ccccc2)NC1=O) [Compound No. 71] |
